Reference: patent US20260248946A1 (TUOJIE BIOTECH SHANGHAI, published 2026)

T1: human CD79B on the surface of cells (DoHH2 / DOHH-2, WSU-DLCL2) (human, UniProt P40259 29-229)
T1 sequence (looked up): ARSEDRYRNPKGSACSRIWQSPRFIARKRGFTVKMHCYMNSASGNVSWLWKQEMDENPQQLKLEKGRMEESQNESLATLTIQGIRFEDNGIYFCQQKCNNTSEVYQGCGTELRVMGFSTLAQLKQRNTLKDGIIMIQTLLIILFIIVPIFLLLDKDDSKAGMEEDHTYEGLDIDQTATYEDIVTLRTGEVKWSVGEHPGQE

T2: human CD79B antigen (coated in the ELISA of the anti-human CD79B mouse antibodies) (human, UniProt P40259 29-159)
T2 construct: extracellular domain; The ELISA protocols only say 'antigen'
T2 sequence (looked up): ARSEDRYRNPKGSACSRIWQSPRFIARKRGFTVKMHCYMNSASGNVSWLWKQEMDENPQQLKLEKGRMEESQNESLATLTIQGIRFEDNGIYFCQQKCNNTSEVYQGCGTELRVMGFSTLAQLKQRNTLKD

T3: fusion protein of human CD79B extracellular domain (ECD) and His tag (human, UniProt P40259 29-159)
T3 construct: also called human CD79B ECD-His; Human CD79B-His protein
T3 sequence: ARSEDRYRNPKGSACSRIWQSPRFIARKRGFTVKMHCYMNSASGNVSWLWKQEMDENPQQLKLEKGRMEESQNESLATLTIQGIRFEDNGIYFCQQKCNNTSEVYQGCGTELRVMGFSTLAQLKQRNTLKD


Experiments:
[1] = molecular target: T1, human CD79B on the surface of cells …; experiment: cell-based or functional assay
[2] = molecular target: T1, human CD79B on the surface of cells …; experiment: cell-based or functional assay; remark: listed apart in the source
[3] = molecular target: T1, human CD79B on the surface of cells …; experiment: FACS on DoHH2 cells
Experimental: 3) Assay on anti-human CD79B mouse monoclonal antibodies by FACS The cell suspension of DoHH2 cells was centrifuged, resuspended in PBS containing 0.1% BSA, and counted. 100 μL of antibody diluted in a 1:10 ratio from 100 nM was added, and the cells were incubated at room temperature for 1 h and washed three times. Then Anti-Mouse IgG (Fc specific)-FITC secondary antibody was added, and the cells were incubated at room temperature for 30 min away from the light, washed three times, gently resuspended in PBS containing 0.1% BSA, and loaded on the machine for assay.

[4] = molecular target: T2, human CD79B antigen (coated in the …); experiment: ELISA on coated human CD79B antigen
Experimental: 2) Assay on anti-human CD79B mouse monoclonal antibodies by ELISA A 96-well plate was coated with 1 μg/mL antigen at 50 μL/well and incubated in a refrigerator at 4° C. overnight. The next day, the coated antigen plate was washed once (washing solution: 1× PBST). After washing, the plate was blocked with 1% BSA blocking solution prepared in 1× PBST at 37° C. for 1 h. After washing the plate 3 times with 1× PBST, 50 μL of antibody diluted in a 1:10 ratio from 100 nM was added, and the plate was incubated in an incubator at 37° C. for 1 h. After washing the plate 3 times with 1× PBST, 100 μL of goat anti-mouse secondary antibody diluted in a 1:5000 ratio was added, and the plate was incubated in an incubator at 37° C. for 0.5 h. After washing the plate, TMB color development solutions A and B were mixed in a 1:1 ratio for color development. 15 min later, the color development reaction was stopped with 1 N hydrochloric acid. […] value was read at 450 nm on a Spectra Max M5 microplate reader.

[5] = molecular target: T1, human CD79B on the surface of cells …; experiment: FACS on DoHH2 cells; remark: listed apart in the source
[6] = molecular target: T3, fusion protein of human CD79B …; experiment: ELISA on Human CD79B-His protein
[7] = molecular target: T3, fusion protein of human CD79B …; experiment: SPR, Human CD79B-His protein

Binder | IC50 of in vitro proliferation, DoHH2 cells (MTT, 72 h) [1] | IC50 of in vitro proliferation, WSU-DLCL2 cells (MTT, 72 h) [1] | Endocytosis rate (4 h), DoHH2 cells [2] | EC50 (read off the curve) [3] | other results
ADC-2 (antibody, human IgG1, kappa, V domains shown, compound A coupled to cysteines after TCEP reduction; positions not given; compound A (Malei-PEG2-vc-PAB-MMAE) coupled to cysteines after TCEP reduction; positions not given; mean n=3.68 per antibody, Antibody-drug conjugate of hAb015-10; DAR 3.68; also called hAb015-10-cys-Malei-PEG2-vc-PAB-MMAE) VH: EVQLVQSGAEVKKPGSSVKVSCKASGSSFSSYGINWVKQAPGQGLEWIGEIFPRSGNTYYNEKFEGRATLTADKSTSTAYMELRSLRSEDTAVYYCAKGDLGDFDYWGQGTTVTVSS VL: DFVMTQTPLSLPVTPGEPASISCRSSQSIVHSDGNTYFEWYLQKPGQSPKLLIYKVSNRFSGVPDRFSGSGSGTDFTLKISRVEAEDVGVYYCFQGSHVPWTFGGGTKVEIKR | – | – | 66% | – | –
hAb017-10 (antibody, human IgG1, kappa, V domains shown, Humanized antibody; also called hAb017-10 humanized antibody) VH: EVQLVQSGAEVKKPGASVKVSCKASGYTFTTYGINWVKQAPGQGLEWIGEIYPRSGNIYYNEKFKGKATLTADKSTSTAYMELRSLRSDDTAVYYCARGSDYDGDFAYWGQGTLVTVSS VL: DVVMTQTPLSLPVTPGEPASISCRSSQSIVHHDGNTYLEWYLQKPGQSPQLLIYKVSNRFSGVPDRFSGSGSGTDFTLKISRVEAEDVGVYYCFQGSHVPWTFGGGTKVEIKR | – | – | – | – | EC50 [5]: 0.55 nM; EC50 [6]: 0.06 nM; Kd [7]: 4.3 nM
ADC-5 (antibody, human IgG1, kappa, V domains shown, compound D coupled to cysteines after TCEP reduction; positions not given; compound D (exatecan-type linker-drug, Topo I inhibitor) coupled to cysteines after TCEP reduction; positions not given; mean n=1.81 per antibody, Antibody-drug conjugate of hAb015-10; also called HAB015-10-cys-D, with a DAR value of about 2) VH: EVQLVQSGAEVKKPGSSVKVSCKASGSSFSSYGINWVKQAPGQGLEWIGEIFPRSGNTYYNEKFEGRATLTADKSTSTAYMELRSLRSEDTAVYYCAKGDLGDFDYWGQGTTVTVSS VL: DFVMTQTPLSLPVTPGEPASISCRSSQSIVHSDGNTYFEWYLQKPGQSPKLLIYKVSNRFSGVPDRFSGSGSGTDFTLKISRVEAEDVGVYYCFQGSHVPWTFGGGTKVEIKR | 0.0085 µg/mL | 0.0683 µg/mL | 76% | – | –
ADC-4 (antibody, human IgG1, kappa, V domains shown, compound C coupled to cysteines after TCEP reduction; positions not given; compound C (linker-drug) coupled to cysteines after TCEP reduction; positions not given; mean n=4.52 per antibody, Antibody-drug conjugate of hAb015-10; DAR 4.52; also called hAb015-10-cys-C) VH: EVQLVQSGAEVKKPGSSVKVSCKASGSSFSSYGINWVKQAPGQGLEWIGEIFPRSGNTYYNEKFEGRATLTADKSTSTAYMELRSLRSEDTAVYYCAKGDLGDFDYWGQGTTVTVSS VL: DFVMTQTPLSLPVTPGEPASISCRSSQSIVHSDGNTYFEWYLQKPGQSPKLLIYKVSNRFSGVPDRFSGSGSGTDFTLKISRVEAEDVGVYYCFQGSHVPWTFGGGTKVEIKR | – | – | 81% | – | –
ADC-1 (antibody, human IgG1, kappa, V domains shown, compound B coupled to cysteines after TCEP reduction; positions not given; compound B (eribulin-derivative linker-drug) coupled to cysteines after TCEP reduction; positions not given; mean n=3.06 per antibody, Antibody-drug conjugate of hAb015-10; DAR 3.06; also called hAb015-10-cys-B) VH: EVQLVQSGAEVKKPGSSVKVSCKASGSSFSSYGINWVKQAPGQGLEWIGEIFPRSGNTYYNEKFEGRATLTADKSTSTAYMELRSLRSEDTAVYYCAKGDLGDFDYWGQGTTVTVSS VL: DFVMTQTPLSLPVTPGEPASISCRSSQSIVHSDGNTYFEWYLQKPGQSPKLLIYKVSNRFSGVPDRFSGSGSGTDFTLKISRVEAEDVGVYYCFQGSHVPWTFGGGTKVEIKR | – | – | 73% | – | –
ADC-6 (antibody, human IgG1, kappa, V domains shown, compound D coupled to cysteines after TCEP reduction; positions not given; compound D (exatecan-type linker-drug, Topo I inhibitor) coupled to cysteines after TCEP reduction; positions not given; mean n=3.46 per antibody) VH: EVQLVQSGAEVKKPGSSVKVSCKASGSSFSSYGINWVKQAPGQGLEWIGEIFPRSGNTYYNEKFEGRATLTADKSTSTAYMELRSLRSEDTAVYYCAKGDLGDFDYWGQGTTVTVSS VL: DFVMTQTPLSLPVTPGEPASISCRSSQSIVHSDGNTYFEWYLQKPGQSPKLLIYKVSNRFSGVPDRFSGSGSGTDFTLKISRVEAEDVGVYYCFQGSHVPWTFGGGTKVEIKR | 0.0033 µg/mL | 0.0542 µg/mL | 75% | – | –
ADC-3 (antibody, human IgG1, kappa, V domains shown, MC-vc-PAB-MMAE coupled to cysteines after TCEP reduction; positions not given; MC-vc-PAB-MMAE coupled to cysteines after TCEP reduction; positions not given; mean n=3.09 per antibody, Antibody-drug conjugate of hAb015-10; DAR 3.09; also called hAb015-10-cys-MC-vc-PAB-MMAE) VH: EVQLVQSGAEVKKPGSSVKVSCKASGSSFSSYGINWVKQAPGQGLEWIGEIFPRSGNTYYNEKFEGRATLTADKSTSTAYMELRSLRSEDTAVYYCAKGDLGDFDYWGQGTTVTVSS VL: DFVMTQTPLSLPVTPGEPASISCRSSQSIVHSDGNTYFEWYLQKPGQSPKLLIYKVSNRFSGVPDRFSGSGSGTDFTLKISRVEAEDVGVYYCFQGSHVPWTFGGGTKVEIKR | 0.0033 µg/mL | 0.0059 µg/mL | 70% | – | –

Continued, in another order:

IC50 of in vitro proliferation, DoHH2 cells (MTT, 72 h) [1] | IC50 of in vitro proliferation, WSU-DLCL2 cells (MTT, 72 h) [1] | Endocytosis rate (4 h), DoHH2 cells [2] | EC50 (read off the curve) [3] | Binder | other results
0.0806 µg/mL | 0.117 µg/mL | 76% | – | ADC-8 (antibody, human IgG1, kappa, V domains shown, MC-VC-PAB-MMAE coupled to cysteines after TCEP reduction; positions not given; MC-VC-PAB-MMAE coupled to cysteines after TCEP reduction; positions not given; mean n=3.59 per antibody) VH: EVQLVESGGGLVQPGGSLRLSCAASGYTFSSYWIEWVRQAPGKGLEWIGEILPGGGDTNYNEIFKGRATFSADTSKNTAYLQMNSLRAEDTAVYYCTRRVPIRLDYWGQGTLVTVSS VL: DIQLTQSPSSLSASVGDRVTITCKASQSVDYEGDSFLNWYQQKPGKAPKLLIYAASNLESGVPSRFSGSGSGTDFTLTISSLQPEDFATYYCQQSNEDPLTFGQGTKVEIKR | –
– | – | – | ~0.09 µg/mL | SN8 (antibody, human IgG1, kappa, V domains shown, also called positive control antibody; the antibody in Polivy (polatuzumab vedotin)) VH: EVQLVESGGGLVQPGGSLRLSCAASGYTFSSYWIEWVRQAPGKGLEWIGEILPGGGDTNYNEIFKGRATFSADTSKNTAYLQMNSLRAEDTAVYYCTRRVPIRLDYWGQGTLVTVSS VL: DIQLTQSPSSLSASVGDRVTITCKASQSVDYEGDSFLNWYQQKPGKAPKLLIYAASNLESGVPSRFSGSGSGTDFTLTISSLQPEDFATYYCQQSNEDPLTFGQGTKVEIKR | –
– | – | – | ~0.03 µg/mL | mAb015 (antibody, V domains shown, Mouse monoclonal antibody from hybridoma; also called 83B2G2) VH: QVQLQQSGAELARPGASVKLSCKASGSSFTSYGINWVKQRTGQGLEWIGEIFPRSGNTYYNEKFEGKATLTADKSSSTAYMELRSLTSEDSAVYFCAKGDLGDFDYWGQGTTLTVSS VL: DFLMTQTPLSLPVRLGDQASISCRSSQSIVHSDGNTYFEWYLQKPGQSPKLLIYKVSNRFSGVPDRFSGSGSGTDFTLKISRVEAEDLGVYYCFQGSHVPWTFGGGTKLEIK | EC50 (read off the curve) [4]: 0.1 to 0.2 nM
– | – | – | ~0.02 µg/mL | mAb017 (antibody, V domains shown, Mouse monoclonal antibody from hybridoma; also called 86F11F6) VH: QVQLQQSGAELARPGASVKLSCKASGYTFTTYGINWVKQRTGQGLEWIGEIYPRSGNIYYNEKFKGKATLTADKSSSTAYMELRSLTSEDSAVYFCARGSDYDGDFAYWGQGTLVTVSA VL: DVLMTQTPLSLPVSLGDQASISCRSSQSIVHHDGNTYLEWYLQKPGQSPKLLIYKVSNRFSGVPDRFSGSGSGTDFTLKISRVEAEDLGVYYCFQGSHVPWTFGGGTQLEIK | EC50 (read off the curve) [4]: 0.1 to 0.2 nM
– | – | – | ~0.02 µg/mL | mAb016 (antibody, V domains shown) VH: QVQLQQSGAELARPGASVKLSCKASGYIFTNYGIIWVKQRTGQGLEWIGDIFPGSGNTYYNENFKGKATLTADKSSSTAYMELRSLTSEDSAVYFCSRGELGDFDYWGQGTTLTVSS VL: VVLMTQTPLSLPVSLGDQASISCRSSQNIVHSDGTTYLEWYLQKPGQSPKLLIYKVSNRFSGVPDRFSGSGSGTDFTLKISRVEAEDLGIYYCFQGSHVPWTFGGGTKLEIK | EC50 (read off the curve) [4]: 0.1 to 0.2 nM
0.002 µg/mL | 0.0534 µg/mL | 68% | – | ADC-7 (antibody, human IgG1, kappa, V domains shown, compound D coupled to cysteines after TCEP reduction; positions not given; compound D (exatecan-type linker-drug, Topo I inhibitor) coupled to cysteines after TCEP reduction; positions not given; mean n=5.84 per antibody) VH: EVQLVQSGAEVKKPGSSVKVSCKASGSSFSSYGINWVKQAPGQGLEWIGEIFPRSGNTYYNEKFEGRATLTADKSTSTAYMELRSLRSEDTAVYYCAKGDLGDFDYWGQGTTVTVSS VL: DFVMTQTPLSLPVTPGEPASISCRSSQSIVHSDGNTYFEWYLQKPGQSPKLLIYKVSNRFSGVPDRFSGSGSGTDFTLKISRVEAEDVGVYYCFQGSHVPWTFGGGTKVEIKR | –
